The results in this text go back to doi:10.1101/285569.

For one data set, the target named is Bruno (UniProt O02374 1-604). Put plainly: EMSA. Background: Mobility shift assays separate free from complexed probe on a gel.
The target of data set [1] is T1, Pumilio RNA-binding domain (UniProt P25822 1091-1426).
T1 sequence: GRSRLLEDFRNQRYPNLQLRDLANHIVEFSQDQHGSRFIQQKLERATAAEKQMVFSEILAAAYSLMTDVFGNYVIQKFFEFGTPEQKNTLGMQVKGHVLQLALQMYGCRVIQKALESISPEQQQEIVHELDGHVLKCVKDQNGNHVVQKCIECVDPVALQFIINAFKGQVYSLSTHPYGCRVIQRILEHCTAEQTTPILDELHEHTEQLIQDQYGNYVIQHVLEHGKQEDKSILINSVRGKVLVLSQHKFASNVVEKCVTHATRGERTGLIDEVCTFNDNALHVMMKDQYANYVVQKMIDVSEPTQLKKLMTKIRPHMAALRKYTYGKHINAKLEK
Put plainly: EMSA.

Consider UAAUCAAGAUACAUAUAUGC (ssRNA) [Scramble RNA], for which the binding result (with Bruno; in data set [1]) was “no binding” throughout.
